Patent US20260308264 (published 2026)

T1: IL-5Rα (human, UniProt Q01344)
T1 chain: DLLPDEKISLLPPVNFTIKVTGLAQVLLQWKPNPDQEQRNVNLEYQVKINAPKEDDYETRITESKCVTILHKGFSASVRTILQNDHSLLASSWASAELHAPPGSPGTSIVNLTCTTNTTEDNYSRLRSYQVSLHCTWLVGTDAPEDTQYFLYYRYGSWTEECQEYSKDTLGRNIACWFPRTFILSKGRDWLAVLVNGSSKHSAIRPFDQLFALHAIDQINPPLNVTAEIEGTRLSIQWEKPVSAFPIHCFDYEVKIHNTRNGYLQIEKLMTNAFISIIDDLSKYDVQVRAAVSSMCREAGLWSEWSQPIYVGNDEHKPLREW


Target: T1, IL-5Rα
Assay: BLI

Row | Kd | Binder
1 | 22.9 nM | IL-5Rα×CD3ε BiTE(L)/scFv-Fc (IL-5Rα arm) (antibody, V domains shown) VH: QVQLVQSGAEVKKPGSSVKVSCKASGYTFTSYWINWVRQAPGQGLEWIGHIYPNKNENYYNHKFKDKATLTVDKSTNTAYMELSSLRSEDTAVYYCTREFYGRQYYQAMDYWGQGTTLTVSS VL: DIQMTQSPSTLSASVGDRVTITCKASQNVGTAVAWYQQKPGKAPKLLIYWASTRHTGVPDRFSGSGSGTDFTLTISSLQPDDFATYYCQQFGRYPYTFGSGTKVEVK
2 | 59.8 nM | IL-5Rα×CD3ε scFv(L)/scFv-Fc (IL-5Rα arm) (antibody, V domains shown) VH: QVQLVQSGAEVKKPGSSVKVSCKASGYTFTSYWINWVRQAPGQGLEWIGHIYPNKNENYYNHKFKDKATLTVDKSTNTAYMELSSLRSEDTAVYYCTREFYGRQYYQAMDYWGQGTTLTVSS VL: DIQMTQSPSTLSASVGDRVTITCKASQNVGTAVAWYQQKPGKAPKLLIYWASTRHTGVPDRFSGSGSGTDFTLTISSLQPDDFATYYCQQFGRYPYTFGSGTKVEVK
3 | 30.5 nM | IL-5Rα×CD3ε IgG analog (IL-5Rα arm) (antibody, V domains shown) VH: QVQLVQSGAEVKKPGSSVKVSCKASGYTFTSYWINWVRQAPGQGLEWIGHIYPNKNENYYNHKFKDKATLTVDKSTNTAYMELSSLRSEDTAVYYCTREFYGRQYYQAMDYWGQGTTLTVSS VL: DIQMTQSPSTLSASVGDRVTITCKASQNVGTAVAWYQQKPGKAPKLLIYWASTRHTGVPDRFSGSGSGTDFTLTISSLQPDDFATYYCQQFGRYPYTFGSGTKVEVK
4 | 123 nM | IL-5Rα×CD3ε Diabody-Fc (IL-5Rα arm) (antibody, V domains shown) VH: QVQLVQSGAEVKKPGSSVKVSCKASGYTFTSYWINWVRQAPGQGLEWIGHIYPNKNENYYNHKFKDKATLTVDKSTNTAYMELSSLRSEDTAVYYCTREFYGRQYYQAMDYWGQGTTLTVSS VL: DIQMTQSPSTLSASVGDRVTITCKASQNVGTAVAWYQQKPGKAPKLLIYWASTRHTGVPDRFSGSGSGTDFTLTISSLQPDDFATYYCQQFGRYPYTFGSGTKVEVK

Target: T1, IL-5Rα
Assay: not given

Row | Kd | Binder
5 | 14.5 nM | 5R65 (antibody, V domains shown) VH: QVQLVQSGAEVKKPGSSVKVSCKASGYTFTSYWINWVRQAPGQGLEWIGHIYPNKNENYYNHKFKDKATLTVDKSTNTAYMELSSLRSEDTAVYYCTRDYYGRSYYYAMDYWGQGTTLTVSS VL: DIQMTQSPSTLSASVGDRVTITCKASQNVGTAVAWYQQKPGKAPKLLIYWASTRHTGVPDRFSGSGSGTDFTLTISSLQPDDFATYYCQQFGRYPYTFGSGTKVEVK
6 | 4.64 nM | 5R65.7 (antibody, V domains shown) VH: QVQLVQSGAEVKKPGSSVKVSCKASGYTFTSYWINWVRQAPGQGLEWIGHIYPNKNENYYNHKFKDKATLTVDKSTNTAYMELSSLRSEDTAVYYCTREFYGRQYYQAMDYWGQGTTLTVSS VL: DIQMTQSPSTLSASVGDRVTITCKASQNVGTAVAWYQQKPGKAPKLLIYWASTRHTGVPDRFSGSGSGTDFTLTISSLQPDDFATYYCQQFGRYPYTFGSGTKVEVK
7 | 26.8 nM | Benralizumab (antibody, V domains shown) VH: EVQLVQSGAEVKKPGASVKVSCKASGYTFTSYVIHWVRQRPGQGLAWMGYINPYNDGTKYNERFKGKVTITSDRSTSTVYMELSSLRSEDTAVYLCGREGIRYYGLLGDYWGQGTLVTVSS VL: DIQMTQSPSSLSASVGDRVTITCGTSEDIINYLNWYQQKPGKAPKLLIYHTSRLQSGVPSRFSGSGSGTDFTLTISSLQPEDFATYYCQQGYTLPYTFGQGTKVEIK

The binders below were run against CD3ε (human, UniProt P07766) (assay: BLI).
Sequence of CD3ε (P07766 23-207): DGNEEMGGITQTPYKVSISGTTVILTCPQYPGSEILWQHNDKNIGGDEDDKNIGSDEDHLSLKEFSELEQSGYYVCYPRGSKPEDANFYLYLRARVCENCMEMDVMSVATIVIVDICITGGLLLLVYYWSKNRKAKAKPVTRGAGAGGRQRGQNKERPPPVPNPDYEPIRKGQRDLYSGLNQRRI

Row | Kd | Binder
8 | 3.61 nM | IL-5Rα×CD3ε scFv(L)/scFv-Fc (CD3ε arm) (antibody, V domains shown) VH: EVQLVESGGGLVQPKGSLKLSCAASGFTFNTYAMNWVRQAPGKGLEWVARIRSKYNNYATYYADSVKDRFTISRDDSQSILYLQMNNLKTEDTAMYYCVRHGNFGNSYVSWFAYWGQGTLVTVSS VL: QAVVTQESALTTSPGETVTLTCRSSTGAVTTSNYANWVQEKPDHLFTGLIGGTNKRAPGVPARFSGSLIGDKAALTITGAQTEDEAIYFCALWYSNLWVFGGGTKLTVL
9 | 8.41 nM | IL-5Rα×CD3ε Diabody-Fc (CD3ε arm) (antibody, V domains shown) VH: EVQLVESGGGLVQPKGSLKLSCAASGFTFNTYAMNWVRQAPGKGLEWVARIRSKYNNYATYYADSVKDRFTISRDDSQSILYLQMNNLKTEDTAMYYCVRHGNFGNSYVSWFAYWGQGTLVTVSS VL: QAVVTQESALTTSPGETVTLTCRSSTGAVTTSNYANWVQEKPDHLFTGLIGGTNKRAPGVPARFSGSLIGDKAALTITGAQTEDEAIYFCALWYSNLWVFGGGTKLTVL
10 | 1.71 nM | IL-5Rα×CD3ε IgG analog (CD3ε arm) (antibody, V domains shown) VH: EVQLVESGGGLVQPKGSLKLSCAASGFTFNTYAMNWVRQAPGKGLEWVARIRSKYNNYATYYADSVKDRFTISRDDSQSILYLQMNNLKTEDTAMYYCVRHGNFGNSYVSWFAYWGQGTLVTVSS VL: QAVVTQESALTTSPGETVTLTCRSSTGAVTTSNYANWVQEKPDHLFTGLIGGTNKRAPGVPARFSGSLIGDKAALTITGAQTEDEAIYFCALWYSNLWVFGGGTKLTVL
11 | 4.62 nM | IL-5Rα×CD3ε BiTE(L)/scFv-Fc (CD3ε arm) (antibody, V domains shown) VH: EVQLVESGGGLVQPKGSLKLSCAASGFTFNTYAMNWVRQAPGKGLEWVARIRSKYNNYATYYADSVKDRFTISRDDSQSILYLQMNNLKTEDTAMYYCVRHGNFGNSYVSWFAYWGQGTLVTVSS VL: QAVVTQESALTTSPGETVTLTCRSSTGAVTTSNYANWVQEKPDHLFTGLIGGTNKRAPGVPARFSGSLIGDKAALTITGAQTEDEAIYFCALWYSNLWVFGGGTKLTVL
